According to publication PMC10998830:
Values joined by “and” are separate entries in the source; they are usually repeats but may differ in a detail not shown here. Equal entries are not always repeated.

Legend:
purified protein = substrate: Nc1ncnc2c1ncn2[C@@H]1O[C@H](COP(=O)(O)OP(=O)(O)O)[C@@H](O)[C@H]1O; experiment: purified protein; type: biochemical, Acinetobacter baumannii; conditions: 25 °C, pH 8.5, 1.6 mM PRPP, 15 mM MgCl2, 100 mM KCl, unlabelled enzyme
[1] = substrate: O=P(O)(O)OC[C@H]1O[C@H](OP(=O)(O)OP(=O)(O)O)[C@H](O)[C@@H]1O; experiment: purified protein, by the assay type; conditions: 25.0 °C
Procedure: To assess the effect of increased AbHisGS mass in catalysis, we purified AbHisGS from heterologous expression in M9 medium supplemented with different isotopes to produce AbHisGS carrying natural isotope abundance (unlabelled AbHisGS), [^15N]AbHisGS, [^13C,^15N]AbHisGS, and [^2H,^13C,^15N]AbHisGS (the ^2H is incorporated in non-exchangeable positions) (Supplementary Fig. 1). […] AbATPPRT substrate saturation curves at 25 °C using unlabelled AbHisGS produced from heterologous expression in LB medium by our published protocol[30] and unlabelled AbHisGS generated here from expression in M9 medium and in M9 with high cell density induction[47] […] S5 Supplementary Figure 4 Substrate saturation curves for unlabelled AbATPPRT with AbHisGS purified from cultures grown in M9 and M9 with high cell density compared with previously published data (reproduced here) for unlabelled AbATPPRT with AbHisGS purified from cultures grown in LB. For the M9 and M9 high cell density curves, all data points are shown for two independent measurements, except for the previously published LB curves, where data are the mean of two independent measurements. […] Kinetics and thermal denaturation data were analysed by the nonlinear regression function of SigmaPlot 14.0 (SPSS Inc.). […] The concentration of ATPPRT at any concentration of AbHisGS and AbHisZ was calculated according to Eq. (4). […]

[2] = substrate: Nc1ncnc2c1ncn2[C@@H]1O[C@H](COP(=O)(O)OP(=O)(O)O)[C@@H](O)[C@H]1O; experiment: purified protein, by the assay type; conditions: 25.0 °C
Procedure: (§1) Kinetics and thermal denaturation data were analysed by the nonlinear regression function of SigmaPlot 14.0 (SPSS Inc.). Thermal denaturation data were fitted to Eq. (1). Substrate saturation curves at a fixed concentration of the co-substrate were fitted to Eq. (2). Initial rate data at varying concentrations of HisZ were fitted to Eq. (3). The concentration of ATPPRT at any concentration of AbHisGS and AbHisZ was calculated according to Eq. (4). Histidine dose-response data were fitted to Eq. (5). Single-turnover data with WT-AbATPPRT isotopologues were fitted to Eq. (6). Plots of kcat ratios against relative viscosity were fitted to Eq. (7). Temperature-rate profile for AbHisGS was fitted to Eq. (8). Single-turnover data with R70A-AbATPPRT isotopologues were fitted to Eq. (9). In Eqs. […] While kcats for [^13C,^15N]AbHisGS and [^2H,^13C,^15N]AbHisGS are marginally lower than for unlabelled AbHisGS and [^15N]AbHisGS, the overlapping nature of most data points in Fig. 1c disagrees with distinguishable heavy-enzyme kinetic isotope effects on kcat (^HEkcat). […] This was further probed by pre-steady-state kinetics under multiple-turnover conditions. The AbHisGS reaction had been shown not to have a burst of product formation, which is reproduced here for unlabelled AbHisGS, whose traces overlap with those for [^2H,^13C,^15N]AbHisGS (Supplementary Fig. 5). S5 Supplementary Figure 4 Substrate saturation curves for unlabelled AbATPPRT with AbHisGS purified from cultures grown in M9 and M9 with high cell density compared with previously published data (reproduced here) for unlabelled AbATPPRT with AbHisGS purified from cultures grown in LB. For the M9 and M9 high cell density curves, all data points are shown for two independent measurements, except for the previously published LB curves, where data are the mean of two independent measurements. Lines are best fit of the data to equation (2): solid line for M9 high cell density curves, long-dashed line for M9 curves, and short-dashed line for previously published LB curves. […]

[3] = substrate: Nc1ncnc2c1ncn2[C@@H]1O[C@H](COP(=O)(O)OP(=O)(O)OP(=O)(O)O)[C@@H](O)[C@H]1O; experiment: purified protein, by the assay type; conditions: 25.0 °C
Procedure: as §1

[4] = substrate: O=P(O)(O)OC[C@H]1O[C@H](OP(=O)(O)OP(=O)(O)O)[C@H](O)[C@@H]1O; experiment: purified protein, by the assay type; conditions: 25.0 °C; remark: listed apart in the source
Procedure: as §1

[5] = substrate: Nc1ncnc2c1ncn2[C@@H]1O[C@H](COP(=O)(O)OP(=O)(O)OP(=O)(O)O)[C@@H](O)[C@H]1O; experiment: purified protein, by the assay type; conditions: 25.0 °C; remark: listed apart in the source
Procedure: as §1, with “5).” for “5). S5 Supplementary Figure 4 Substrate saturation curves for unlabelled AbATPPRT with AbHisGS purified from cultures grown in M9 and M9 with high cell density compared with previously published data (reproduced here) for unlabelled AbATPPRT with AbHisGS purified from cultures grown in LB. For the M9 and M9 high cell density curves, all data points are shown for two independent measurements, except for the previously published LB curves, where data are the mean of two independent measurements. Lines are best fit of the data to equation (2): solid line for M9 high cell density curves, long-dashed line for M9 curves, and short-dashed line for previously published LB curves.”

[6] = substrate: O=P(O)(O)OC[C@H]1O[C@H](OP(=O)(O)OP(=O)(O)O)[C@H](O)[C@@H]1O; experiment: purified protein, by the assay type; conditions: 25.0 °C; remark: listed apart in the source
Procedure: as §1, with “5).” for “5). S5 Supplementary Figure 4 Substrate saturation curves for unlabelled AbATPPRT with AbHisGS purified from cultures grown in M9 and M9 with high cell density compared with previously published data (reproduced here) for unlabelled AbATPPRT with AbHisGS purified from cultures grown in LB. For the M9 and M9 high cell density curves, all data points are shown for two independent measurements, except for the previously published LB curves, where data are the mean of two independent measurements. Lines are best fit of the data to equation (2): solid line for M9 high cell density curves, long-dashed line for M9 curves, and short-dashed line for previously published LB curves.”

B1: AbATPPRT (Acinetobacter baumannii ACICU) (protein)
chain: MNDVRNDDPNFNVMGNFDHGLTLALSKGRILKETLPLLATAGINLLEDPEKSRKLIFPTTHKQVRILILRASDVPTYVENGAADLGVAGKDVLMEHGAQHVYELLDLQIAKCKLMTAGKVGMERPKGRLKIATKYVNLTRQYYASLGEQVDVIKLYGSMELAPLVGLGDYIVDVVDTGNTLRANGLEPLEEICKVSSRLIVNKASFKRKQVLLNPIISQLEQAVQSR
notes: hetero-octameric holoenzyme (two HisGS dimers flanking a HisZ tetramer) reconstituted in vitro from separately purified recombinant AbHisGS (E. coli BL21(DE3)) and AbHisZ; unlabelled (natural isotope abundance)
Km (purified protein): 350 ± 40 µM
kcat (purified protein): 16.6 ± 0.4 s⁻¹
Km [1]: 96 µM
kcat [1]: 16.6 ± 0.4 s⁻¹
Km [2]: 300 µM and 280 µM
Km [3]: 130 ± 20 µM
Km [4]: 120 ± 10 µM
Km [5]: 170 ± 30 µM and 210 ± 30 µM
Km [6]: 80 µM and 85 µM
